Experimental data: US20220089698A1
Numbering of substitutions follows the chain as printed.

Assays:
Assay in all cases: cell-based or functional assay
[1] = target: 152 patient-derived subtype B viruses obtained from pre-ART plasma
[2] = target: HIV-1 envelope glycoprotein (Env, gp120) of virus 1003 (HIV-1)
[3] = target: HIV-1 envelope glycoprotein (Env, gp120) of virus 1012 (HIV-1)
[4] = target: HIV-1 envelope glycoprotein (Env, gp120) of virus 1413 (HIV-1)
[5] = target: HIV-1 envelope glycoprotein (Env, gp120) of virus 1489 (HIV-1)
[6] = target: HIV-1 envelope glycoprotein (Env, gp120) of virus 302076 (HIV-1)
[7] = target: HIV-1 envelope glycoprotein (Env, gp120) of virus 7015 (HIV-1)
[8] = target: HIV-1 envelope glycoprotein (Env, gp120) of virus 7051 (HIV-1)
[9] = target: HIV-1 envelope glycoprotein (Env, gp120) of virus 7103 (HIV-1)
[10] = target: HIV-1 envelope glycoprotein (Env, gp120) of virus 7141 (HIV-1)
[11] = target: HIV-1 envelope glycoprotein (Env, gp120) of virus 7467 (HIV-1)
[12] = target: HIV-1 envelope glycoprotein (Env, gp120) of virus 7552 (HIV-1)
[13] = target: HIV-1 envelope glycoprotein (Env, gp120) of virus 7576 (HIV-1)
[14] = target: HIV-1 envelope glycoprotein (Env, gp120) of virus 7595 (HIV-1)
[15] = target: HIV-1 envelope glycoprotein (Env, gp120) of virus 7714 (HIV-1)
[16] = target: HIV-1 envelope glycoprotein (Env, gp120) of virus 8106 (HIV-1)
[17] = target: HIV-1 envelope glycoprotein (Env, gp120) of virus 8110 (HIV-1)
[18] = target: HIV-1 envelope glycoprotein (Env, gp120) of virus 8117 (HIV-1)
[19] = target: HIV-1 envelope glycoprotein (Env, gp120) of virus 8134 (HIV-1)
[20] = target: HIV-1 envelope glycoprotein (Env, gp120) of virus 8176 (HIV-1)
[21] = target: HIV-1 envelope glycoprotein (Env, gp120) of virus 8318 (HIV-1)
[22] = target: HIV-1 envelope glycoprotein (Env, gp120) of virus 8320 (HIV-1)
[23] = target: HIV-1 envelope glycoprotein (Env, gp120) of virus 92HT593 (HIV-1)
[24] = target: HIV-1 envelope glycoprotein (Env, gp120) of virus 92US657 (HIV-1)
[25] = target: HIV-1 envelope glycoprotein (Env, gp120) of virus 92US712 (HIV-1)
[26] = target: HIV-1 envelope glycoprotein (Env, gp120) of virus 92US727 (HIV-1)
[27] = target: HIV-1 envelope glycoprotein (Env, gp120) of virus CHO77 (HIV-1)
[28] = target: HIV-1 envelope glycoprotein (Env, gp120) of virus REJO (HIV-1)
[29] = target: HIV-1 envelope glycoprotein (Env, gp120) of virus THRO (HIV-1)
[30] = target: HIV-1 envelope glycoprotein (Env, gp120) of virus VS001 (HIV-1)
[31] = target: HIV-1 envelope glycoprotein (Env, gp120) of virus VS004 (HIV-1)
[32] = target: HIV-1 envelope glycoprotein (Env, gp120) of virus VS017 (HIV-1)
[33] = target: HIV-1 envelope glycoprotein (Env, gp120) of virus VS026 (HIV-1)
[34] = target: HIV-1 envelope glycoprotein (Env, gp120) of virus VS030 (HIV-1)
[35] = target: HIV-1 envelope glycoprotein (Env, gp120) of virus VS039 (HIV-1)
[36] = target: HIV-1 envelope glycoprotein (Env, gp120) of virus VS042 (HIV-1)
[37] = target: HIV-1 envelope glycoprotein (Env, gp120) of virus VS043 (HIV-1)
[38] = target: HIV-1 envelope glycoprotein (Env, gp120) of virus VS044 (HIV-1)
[39] = target: HIV-1 envelope glycoprotein (Env, gp120) of virus VS046 (HIV-1)
[40] = target: HIV-1 envelope glycoprotein (Env, gp120) of virus VS049 (HIV-1)
[41] = target: HIV-1 envelope glycoprotein gp120 of virus 92US657 (HIV-1 subtype B, isolate 92US657)
[42] = target: HIV-1 envelope glycoprotein gp120 of virus BaL (HIV-1 BaL (lab adapted strain, subtype B))
[43] = target: HIV-1 envelope glycoprotein gp120 of virus CHO77 (HIV-1 subtype B, virus CHO77)
[44] = target: Env from subtype B plasma isolates (panel of 142 HIV-1 pseudotyped viruses)

B1: 1.52.90-1 (antibody, V domains shown)
VH: QVQLLQSGAAVTKPGASVRVSCEASGYNIRDYFIHWWRQAPGQGLQWVGWINPKTGQPNNPRQFQGRVSLTRHASFDFDTFSFYMDLKALRSDDTAVYFCARQRSDYWDFDVWGSGTQVTVSS
VL: DIQMTQSPSSLSASVGDRATITCQANGYLNWYQQRRGKAPKLLIYDGSKLERGVPSRFSGSRWGQEYNLTISSLQPEDIATYFCQVYEFFGPGTRLDLKR
Q: Which Breadth (% viruses neutralized with an IC95 ≤ 50 µg/mL) [1] does the source give for B1 here?
A: 78%

Q: What about the Geomean IC95 (neutralization) [1] of the same binder?
A: 4.56 µg/mL

Q: What about the Median IC95 (neutralization) [1] of the same binder?
A: 4.42 µg/mL

B2: Antibody 1.1.119-1 (antibody, human IgG1, kappa, V domains shown)
VH: B1 VH with F76W
VL: B1 VL with N68T
Q: Which Virus Neutralization Potency [2] does the source give for B2 here?
A: 0.91 µg/mL

Q: What about the Virus Neutralization Potency [3] of the same binder?
A: 1.06 µg/mL

Q: What about the Virus Neutralization Potency [4] of the same binder?
A: 4.52 µg/mL

Q: What about the Virus Neutralization Potency [5] of the same binder?
A: 0.17 µg/mL

Q: And the Virus Neutralization Potency [6]?
A: 0.08 µg/mL

Q: What about the Virus Neutralization Potency [7] of the same binder?
A: 1.08 µg/mL

Q: What about the Virus Neutralization Potency [8] of the same binder?
A: 1.89 µg/mL

Q: And the Virus Neutralization Potency [9]?
A: 1.16 µg/mL

Q: What about the Virus Neutralization Potency [10] of the same binder?
A: 4.98 µg/mL

Q: And the Virus Neutralization Potency [11]?
A: 0.19 µg/mL

Q: And the Virus Neutralization Potency [12]?
A: > 80 µg/mL

Q: What about the Virus Neutralization Potency [13] of the same binder?
A: 0.6 µg/mL

Q: What about the Virus Neutralization Potency [14] of the same binder?
A: 3.07 µg/mL

Q: And the Virus Neutralization Potency [15]?
A: 1.93 µg/mL

Q: And the Virus Neutralization Potency [16]?
A: 1.44 µg/mL

Q: What about the Virus Neutralization Potency [17] of the same binder?
A: 2.37 µg/mL

Q: And the Virus Neutralization Potency [18]?
A: 1.66 µg/mL

Q: And the Virus Neutralization Potency [19]?
A: 3.44 µg/mL

Q: And the Virus Neutralization Potency [20]?
A: 0.27 µg/mL

Q: And the Virus Neutralization Potency [21]?
A: 0.42 µg/mL

Q: What about the Virus Neutralization Potency [22] of the same binder?
A: 1.47 µg/mL

Q: What about the Virus Neutralization Potency [23] of the same binder?
A: 0.15 µg/mL

Q: What about the Virus Neutralization Potency [24] of the same binder?
A: 0.3 µg/mL

Q: And the Virus Neutralization Potency [25]?
A: 0.03 µg/mL

Q: What about the Virus Neutralization Potency [26] of the same binder?
A: 43.7 µg/mL

Q: And the Virus Neutralization Potency [27]?
A: 0.02 µg/mL

Q: And the Virus Neutralization Potency [28]?
A: 0.03 µg/mL

Q: What about the Virus Neutralization Potency [29] of the same binder?
A: 2.8 µg/mL

Q: And the Virus Neutralization Potency [30]?
A: 0.37 µg/mL

Q: And the Virus Neutralization Potency [31]?
A: 6.02 µg/mL

Q: And the Virus Neutralization Potency [32]?
A: 2.75 µg/mL

Q: What about the Virus Neutralization Potency [33] of the same binder?
A: 0.14 µg/mL

Q: What about the Virus Neutralization Potency [34] of the same binder?
A: 4.96 µg/mL

Q: And the Virus Neutralization Potency [35]?
A: 0.13 µg/mL

Q: And the Virus Neutralization Potency [36]?
A: 2.19 µg/mL

Q: What about the Virus Neutralization Potency [37] of the same binder?
A: 0.81 µg/mL

Q: What about the Virus Neutralization Potency [38] of the same binder?
A: 0.2 µg/mL

Q: And the Virus Neutralization Potency [39]?
A: 0.03 µg/mL

Q: And the Virus Neutralization Potency [40]?
A: > 100 µg/mL

B3: Antibody 1.1.104-1 (antibody, human IgG1, kappa, V domains shown)
VH: B1 VH with F76W
VL: B1 VL with R18T, S61R, N68T, S72N, S73N
Q: B3 was tested. Which Virus Neutralization Potency [2] did it give?
A: 1.44 µg/mL

Q: What about the Virus Neutralization Potency [3] of the same binder?
A: 2.87 µg/mL

Q: And the Virus Neutralization Potency [4]?
A: 4.34 µg/mL

Q: What about the Virus Neutralization Potency [5] of the same binder?
A: 0.28 µg/mL

Q: What about the Virus Neutralization Potency [6] of the same binder?
A: 0.1 µg/mL

Q: What about the Virus Neutralization Potency [7] of the same binder?
A: 0.67 µg/mL

Q: And the Virus Neutralization Potency [8]?
A: 1.32 µg/mL

Q: And the Virus Neutralization Potency [9]?
A: 1.82 µg/mL

Q: And the Virus Neutralization Potency [10]?
A: 6.57 µg/mL

Q: What about the Virus Neutralization Potency [11] of the same binder?
A: 0.06 µg/mL

Q: What about the Virus Neutralization Potency [12] of the same binder?
A: > 80 µg/mL

Q: And the Virus Neutralization Potency [13]?
A: 1.1 µg/mL

Q: What about the Virus Neutralization Potency [14] of the same binder?
A: 8.47 µg/mL

Q: And the Virus Neutralization Potency [16]?
A: 2.8 µg/mL

Q: What about the Virus Neutralization Potency [17] of the same binder?
A: 4.19 µg/mL

Q: And the Virus Neutralization Potency [18]?
A: 1.22 µg/mL

Q: And the Virus Neutralization Potency [19]?
A: 6.07 µg/mL

Q: What about the Virus Neutralization Potency [20] of the same binder?
A: 0.16 µg/mL

Q: And the Virus Neutralization Potency [21]?
A: 0.32 µg/mL

Q: What about the Virus Neutralization Potency [22] of the same binder?
A: 4.34 µg/mL

Q: What about the Virus Neutralization Potency [23] of the same binder?
A: 0.28 µg/mL

Q: And the Virus Neutralization Potency [24]?
A: 0.36 µg/mL

Q: And the Virus Neutralization Potency [25]?
A: 0.04 µg/mL

Q: And the Virus Neutralization Potency [26]?
A: 10.6 µg/mL

Q: What about the Virus Neutralization Potency [27] of the same binder?
A: 0.03 µg/mL

Q: And the Virus Neutralization Potency [28]?
A: 0.02 µg/mL

Q: What about the Virus Neutralization Potency [29] of the same binder?
A: 4.27 µg/mL

Q: What about the Virus Neutralization Potency [30] of the same binder?
A: 0.34 µg/mL

Q: What about the Virus Neutralization Potency [31] of the same binder?
A: 4.8 µg/mL

Q: And the Virus Neutralization Potency [32]?
A: 2.33 µg/mL

Q: And the Virus Neutralization Potency [33]?
A: 0.19 µg/mL

Q: And the Virus Neutralization Potency [34]?
A: 7.9 µg/mL

Q: What about the Virus Neutralization Potency [35] of the same binder?
A: 0.1 µg/mL

Q: What about the Virus Neutralization Potency [36] of the same binder?
A: 2.33 µg/mL

Q: What about the Virus Neutralization Potency [37] of the same binder?
A: 1.49 µg/mL

Q: What about the Virus Neutralization Potency [38] of the same binder?
A: 0.28 µg/mL

Q: What about the Virus Neutralization Potency [39] of the same binder?
A: 0.03 µg/mL

Q: And the Virus Neutralization Potency [40]?
A: > 100 µg/mL

B4: Antibody 1.36.35-1 (antibody, human IgG1, kappa, V domains shown)
VH: QVQLVQSGAEVKKPGASVRVSCKASGYNIRDYFMHWWRQAPGQGLQWVGWINPKTGQPNNPRQFQGRVTMTRHASWDFDTFSAYMDLSRLRSDDTATYFCARQRTDYWDFDVWGQGTMVTVSS
VL: B1 VL with A19V, R35K, R36P, K49N, R52T, N68T, F90V, R95N, L98I
Q: For B4, which Virus Neutralization Potency (IC50) [41] is on record?
A: 5.37 µg/mL

Q: What about the Virus Neutralization Potency (IC50) [42] of the same binder?
A: > 20 µg/mL

Q: What about the Virus Neutralization Potency (IC50) [43] of the same binder?
A: 0.32 µg/mL

B5: Antibody A-1 (antibody, human IgG1, kappa)
heavy: QVQLLQSGAAVTKPGASVRVSCEASGYNIRDYFIHWWRQAPGQGLQWVGWINPKTGQPNNPRQFQGRVSLTRHASWDFDTFSFYMDLKALRSDDTAVYFCARQRSDYWDFDVWGSGTQVTVSSASTKGPSVFPLAPSSKSTSGGTAALGCLVKDYFPEPVTVSWNSGALTSGVHTFPAVLQSSGLYSLSSVVTVPSSSLGTQTYICNVNHKPSNTKVDKKVEPKSCDKTHTCPPCPAPELLAGPDVFLFPPKPKDTLMISRTPEVTCVVVDVSHEDPEVKFNWYVDGVEVHNAKTKPREEQYNSTYRVVSVLTVLHQDWLNGKEYKCKVSNKALPLPEEKTISKAKGQPREPQVYTLPPSREEMTKNQVSLTCLVKGFYPSDIAVEWESNGQPENNYKTTPPVLDSDGSFFLYSKLTVDKSRWQQGNVFSCSVLHEALHSHYTQKSLSLSPGK
light: DIQMTQSPSSLSASVGDTVTITCQANGYLNWYQQRRGKAPKLLIYDGSKLERGVPSRFSGRRWGQEYNLTINNLQPEDIATYFCQVYEFVVPGTRLDLKRTVAAPSVFIFPPSDEQLKSGTASVVCLLNNFYPREAKVQWKVDNALQSGNSQESVTEQDSKDSTYSLSSTLTLSKADYEKHKVYACEVTHQGLSSPVTKSFNRGEC
Q: How did the Median IC95 (neutralization) [44] turn out when B5 was run?
A: 1.09 µg/mL
